Measured values taken from the supplement of paper PMC10567573.

B1: ZNF24 (parent)
chain: YGETCFPKGRFERKRNPSRKKQHI

Variants of: B1
Assay: protein stability index of a GFP-peptide fusion (GPS, HEK-293T) (PSI 1-6); higher = more stable
Conditions: c terminus: a fixed tail appended
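Note: lentivirally expressed fusions sorted by FACS into six bins by GFP to DsRed ratio, PSI derived from sequencing read proportions per bin multiplied by bin number.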

Protein stability index, by site and new letter:
R15: K 2.03 | A 2.76 | V 2.83 | T 2.46 | E 2.93 | Q 2.88 | D 3.17 | N 3.2 | G 2.75 | W 2.76 | M 3.17 | S 2.79 | H 2.84 | F 2.83 | Y 2.02 | C 2.65 | L 2.76 | P 3.15 | I 2.28
K21: S 3.05 | P 2.61 | Q 2.59 | M 2.08 | V 2.2 | F 2.09 | G 3.16 | A 2.78 | H 2.73 | L 1.95 | I 2.38 | N 3.23 | Y 3.23 | E 3.1 | R 2.85 | T 2.97 | W 2.17 | D 3.11 | C 2.45
N16: G 2.5 | L 2.49 | Q 2.87 | P 2.31 | D 2.15 | A 2.5 | R 2.63 | E 2.89 | W 2.21 | F 2.23 | K 2.9 | I 2.7 | Y 2.82 | V 1.94 | M 2.71 | S 2.92 | C 2.14 | T 2.89
P17: T 3.09 | S 2.62 | E 2.93 | M 2.79 | A 2.56 | R 2.89 | H 3.04 | D 3.58 | L 2.5 | K 2.5 | W 2.52 | C 2.37 | Q 2.95 | V 2.25 | N 3 | F 2.78 | Y 2.34 | G 2.97
K14: P 3.18 | T 2.27 | W 2.34 | V 2.42 | S 2.65 | Q 3.1 | R 2.8 | Y 2.89
S18: G 3.53 | R 2.82 | C 2.76 | Y 2.02 | M 2.77 | D 3.07 | Q 3.03 | I 2.88 | N 3.87 | V 2.62 | A 2.55 | L 3.16 | H 2.34 | W 2.22 | E 3.63 | K 3.1 | P 2.48 | F 2.71 | T 2.72
Q22: V 2.4 | G 2.95 | D 2.9 | P 2.59 | H 2.33 | C 2.14 | R 2.69 | F 2.23 | S 3.4 | I 2.28 | M 2.61 | Y 2.46 | E 3.19 | A 2.97 | L 2.4 | T 2.67 | K 2.73 | W 2.25 | N 2.94
H23: F 2.95 | C 2.85 | A 2.42 | D 2.42 | M 3.14 | I 2.57 | L 2.57 | K 3.22 | E 2.68 | G 3.25
R19: K 2.82 | D 2.95 | Q 2.26 | V 2.89 | A 3.07 | E 2.56 | S 3.38 | L 2.06 | F 1.83 | Y 2.68 | N 2.86 | I 2 | P 3.28 | G 2.69 | W 2.42 | T 3.5 | H 3.22 | M 2.89
K20: C 2.1 | E 2.77 | H 3.09 | N 3.08 | L 2.05 | D 3.48 | Y 2.76 | W 1.99 | T 2.44 | S 3.17 | A 3.31 | V 2.66 | F 2.45 | M 2.08 | I 2.63 | P 2.49 | Q 2.34 | R 2.34 | G 3.29
